The values that follow come from paper PMC9638019, “The archetypal gene transfer agent RcGTA is regulated via direct interaction with the enigmatic RNA polymerase omega subunit”.

Broadly, the stoichiometry N is the number of molecules, sites or subunits per partner or assembly.

For series [1], the target named is MBP-GafA-Cx^87–382 (R. capsulatus). As to the kind of experiment: SEC; analytical gel filtration, Superdex 200 increase 10/200 GL, MBP binding buffer (200 mM NaCl, 20 mM Tris, 1 mM EDTA; pH 7.4); molecular weight estimated from a standard curve.
The target in series [2] is Maltose Binding Protein-GafA fusion protein (R. capsulatus). The description is as above.
Series [3] has as its target MBP-GafA-C^221–382 (R. capsulatus). Described as above.
Series [4] concerns the target T1, MBP-GafA-C221-382 (UniProt D5AUH1 221-382).
T1 sequence: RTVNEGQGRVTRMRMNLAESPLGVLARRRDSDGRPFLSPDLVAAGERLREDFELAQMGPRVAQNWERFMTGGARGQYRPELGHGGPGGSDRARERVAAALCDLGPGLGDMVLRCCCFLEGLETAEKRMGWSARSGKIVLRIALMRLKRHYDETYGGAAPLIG
As to the kind of experiment: EMSA; poly dI:dC; 25 mM HEPES pH 8.0, 50 mM K-glutamate, 50 mM MgSO4, 1 mM DTT, 0.1 mM EDTA, 0.05% Triton X-100, 4% glycerol, 1 ug poly dI:dC per 10 ul, 80 nM Cy5-dsDNA, 30 min room temperature; 7% acrylamide, 1x TBE. Conditions: protein: recombinant; tags: N-terminal MBP; chain copies: 2; label: 5'-Cy5 on one strand; blunt. For orientation: Mobility shift assays separate free from complexed probe on a gel.

In series [5] the target is T2, GafA-Nc1-86 (UniProt D5AUH1 1-86).
T2 sequence: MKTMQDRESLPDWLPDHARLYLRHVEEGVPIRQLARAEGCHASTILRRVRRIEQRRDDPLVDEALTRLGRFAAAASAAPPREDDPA
As to the kind of experiment: EMSA; non-specific; 25 mM HEPES pH 8.0, 50 mM K-glutamate, 50 mM MgSO4, 1 mM DTT, 0.1 mM EDTA, 0.05% Triton X-100, 4% glycerol, 1 ug poly dI:dC per 10 ul, 80 nM Cy5-dsDNA, 30 min room temperature; 7% acrylamide, 1x TBE. Conditions: protein: recombinant; tags: none (MBP removed with 3C protease); label: 5'-Cy5 on one strand; blunt.

For series [6], the target named is T2, GafA-Nc1-86. The experiment in a line: EMSA; non-specific: shift lost with 500-fold non-specific competitor; 25 mM HEPES pH 8.0, 50 mM K-glutamate, 50 mM MgSO4, 1 mM DTT, 0.1 mM EDTA, 0.05% Triton X-100, 4% glycerol, 1 ug poly dI:dC per 10 ul, 80 nM Cy5-dsDNA, 30 min room temperature; 7% acrylamide, 1x TBE. Conditions: protein: recombinant; tags: none (MBP removed with 3C protease); label: 5'-Cy5 on one strand; blunt.

Series [7] concerns the target T2, GafA-Nc1-86. As to the kind of experiment: EMSA; specific: shift remains with 500-fold non-specific competitor; 25 mM HEPES pH 8.0, 50 mM K-glutamate, 50 mM MgSO4, 1 mM DTT, 0.1 mM EDTA, 0.05% Triton X-100, 4% glycerol, 1 ug poly dI:dC per 10 ul, 80 nM Cy5-dsDNA, 30 min room temperature; 7% acrylamide, 1x TBE. Conditions: protein: recombinant; tags: none (MBP removed with 3C protease); label: 5'-Cy5 on one strand; blunt.

On to MBP-GafA-Cx^87–382 (domain or fragment), for which the stoichiometry N in series [1] is 2.
In the case of “Maltose Binding Protein-GafA fusion protein (natural protein)”, the stoichiometry N in series [2] is 2.
Regarding MBP-GafA-C^221–382 (domain or fragment), the stoichiometry N in series [3] was 2.

B1: pGafA3 (dsDNA)
DNA 1: CGCTCAACCGAACGCTGCGTTTGGAAATCTTTAGAGTTTATAAAGAATTT
DNA 2: AAATTCTTTATAAACTCTAAAGATTTCCAAACGCAGCGTTCGGTTGAGCG
Regarding B1, the binding result in series [4] is reported as “binds”.

B2: pGafA1 (dsDNA)
DNA 1: TCGAGATCGCCCCATTTCTTAACCAAGGGGTAACCAAAGCAACCCACGGT
DNA 2: ACCGTGGGTTGCTTTGGTTACCCCTTGGTTAAGAAATGGGGCGATCTCGA
B2: the binding result in series [5] is given as “binds”.

B3: pGTA4 (dsDNA)
DNA 1: TTCATTTCGCTCGTGCGGACAGGCATGAGAGGCGGGTCACGCAAGACATG
DNA 2: CATGTCTTGCGTGACCCGCCTCTCATGCCTGTCCGCACGAGCGAAATGAA
B3: the binding result in series [6] is on record as “binds”.

B4: pGTA1 (dsDNA)
DNA 1: TCCGGGGTTTTTTCTTTTCAGCGGGTGCAACCCTGAATATAGCACTTGAC
DNA 2: GTCAAGTGCTATATTCAGGGTTGCACCCGCTGAAAAGAAAAAACCCCGGA
In the case of B4, the binding result in series [7] is “binds”.

B5: pGTA2 (dsDNA)
DNA 1: TTTGCGAACGCTTCAAGGTAGAGATAAGGCATGCTAGGAGAGGTGGGCAA
DNA 2: TTGCCCACCTCTCCTAGCATGCCTTATCTCTACCTTGAAGCGTTCGCAAA
Consider B5, for which the binding result in series [4] and in series [6] was “binds” each time.

B6: pGTA3 (dsDNA)
DNA 1: GCGCCGCGGGTGACCGTGTGCGCTTTTTTCATTTCGCTCGTGCGGACAGG
DNA 2: CCTGTCCGCACGAGCGAAATGAAAAAAGCGCACACGGTCACCCGCGGCGC
In the case of B6, the binding result in series [7] is on record as “binds”.

B7: pGafA2 (dsDNA)
DNA 1: TGCAGATGCCGTTTGCGCTATCTGACTGCCAGCCTGTCGATGGGAGACCGGAGATGAAGA
DNA 2: TCTTCATCTCCGGTCTCCCATCGACAGGCTGGCAGTCAGATAGCGCAAACGGCATCTGCA
Take B7: the binding result in series [5] is given as “binds”.
